This test deals with E3α (rabbit). As to the kind of experiment: cell-based or functional assay.

Non-standard residues stand in square brackets, D forms with d. No end group written: not given here. Ahx = NCCCCCC(=O)O

Phe-[Ahx]-Cys came in with a TCA-soluble 125I (cpm) from [125I]-lysozyme degradation in rabbit reticulocyte lysate at the 2 hour time point; no treatment 12,475 cpm of 3590 cpm.

Source of the values: US20020173049A1.
